Article PMC8595387 (Scientific Reports, 2021)

What was measured:
[1] = target: T1, Recombinant Human ADAMTS13 (Full Length) Protein (Homo sapiens, UniProt Q76LX8); test: SPR; Biacore T200; antibodies captured at about 1,000 RU on anti-human or anti-mouse IgG (Fc) on a CM5 chip; ADAMTS13 injected at 80 nM to 0.625 nM in PBS with 0.05% Tween 20; 25 C; 30 uL/min; contact 240 s, dissociation 900 s; 1:1 binding model; conditions: both partners purified
T1 construct: ADAMTS13, human, commercial recombinant protein named 'Full Length' by the vendor; also called a disintegrin-like and metalloproteinase with thrombospondin type-1 motif 13; source: bought: R&D Systems (6156-AD-020)
T1 sequence (Q76LX8 75-1427): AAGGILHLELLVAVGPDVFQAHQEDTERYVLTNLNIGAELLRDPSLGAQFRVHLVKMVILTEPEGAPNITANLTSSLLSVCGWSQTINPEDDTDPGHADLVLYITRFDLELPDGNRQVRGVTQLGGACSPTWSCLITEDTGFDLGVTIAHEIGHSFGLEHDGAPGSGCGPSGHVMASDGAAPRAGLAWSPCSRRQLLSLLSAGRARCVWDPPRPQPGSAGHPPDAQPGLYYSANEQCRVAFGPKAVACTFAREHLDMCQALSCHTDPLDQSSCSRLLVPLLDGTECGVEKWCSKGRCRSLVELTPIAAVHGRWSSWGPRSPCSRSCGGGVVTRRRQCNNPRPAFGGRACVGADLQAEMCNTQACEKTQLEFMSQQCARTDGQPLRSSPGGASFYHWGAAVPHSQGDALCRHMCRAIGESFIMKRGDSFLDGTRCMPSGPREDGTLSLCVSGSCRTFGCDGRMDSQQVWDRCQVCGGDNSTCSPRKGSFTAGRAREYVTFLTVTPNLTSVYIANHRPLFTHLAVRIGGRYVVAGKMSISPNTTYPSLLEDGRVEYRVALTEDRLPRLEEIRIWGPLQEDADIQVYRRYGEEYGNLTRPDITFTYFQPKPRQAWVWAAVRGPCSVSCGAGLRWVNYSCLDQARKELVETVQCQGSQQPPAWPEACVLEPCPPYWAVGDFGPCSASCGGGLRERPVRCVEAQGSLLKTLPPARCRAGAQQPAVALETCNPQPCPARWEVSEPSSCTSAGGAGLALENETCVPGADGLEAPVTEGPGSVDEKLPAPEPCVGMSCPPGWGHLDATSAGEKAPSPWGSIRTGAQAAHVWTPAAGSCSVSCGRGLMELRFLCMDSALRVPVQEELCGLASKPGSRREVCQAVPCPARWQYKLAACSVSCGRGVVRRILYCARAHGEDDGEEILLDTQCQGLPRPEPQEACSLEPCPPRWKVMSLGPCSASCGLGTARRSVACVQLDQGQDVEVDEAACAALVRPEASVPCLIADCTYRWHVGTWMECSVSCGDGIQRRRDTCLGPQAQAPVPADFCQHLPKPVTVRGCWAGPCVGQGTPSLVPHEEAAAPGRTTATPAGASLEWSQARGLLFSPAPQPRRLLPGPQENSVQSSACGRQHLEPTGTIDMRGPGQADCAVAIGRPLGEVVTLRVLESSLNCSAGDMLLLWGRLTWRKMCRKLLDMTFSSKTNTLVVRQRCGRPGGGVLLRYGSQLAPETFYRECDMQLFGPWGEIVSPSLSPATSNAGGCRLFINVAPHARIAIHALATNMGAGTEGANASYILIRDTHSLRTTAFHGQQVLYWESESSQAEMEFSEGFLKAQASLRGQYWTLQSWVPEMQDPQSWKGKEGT

[2] = target: T1, Recombinant Human ADAMTS13 (Full …); test: cell-based or functional assay

Kd [1] | koff [1] | kon [1] | IC50 of inhibition of plasma ADAMTS13 activity on VWF cleavage (chromogenic ELISA, normal pooled plasma, antibody 25 to 0.20 ug/mL) [2] | Binder
5.99 nM | 0.000362 s⁻¹ | 60400 M⁻¹ s⁻¹ | 2.28 µg/mL | mouse anti-ADAMTS13 antibody clone A10 (antibody, V domains shown, VH of mA10; mouse heavy chain constant region cloned from the mA10 hybridoma; VL of mA10; mouse light chain constant region cloned from the mA10 hybridoma; Whole mouse IgG; mouse IgG2b served as the negative control, which may hint at IgG2b (surmise); also called mA10; mouse A10; source: Expi293F, transiently transfected, purified (protein G)) VH: EVQLQQSGPELVKPGTSMKISCKASGYSFTGYTMHWVKQSHGKNLEWIGLINPYNGGTGYNQKFKGKATLTVDKSSSTTYIELLSLTSEDSAVYYCARTSGYLFAYWGQGTLVTVSA VL: DIQMTQSSSSFSVSLGDRVTITCKASEDIYNRLAWYQQKPGNAPRLLISGATSLETGVPSRFSGSGSGKDYIFSITSLQTEDVATYYCQQYWSSPLTFGAGTKLELK
2.8 nM | 2.03e-05 s⁻¹ | 7270 M⁻¹ s⁻¹ | 2.3 µg/mL | human-mouse chimeric A10 (antibody, V domains shown) VH: EVQLQQSGPELVKPGTSMKISCKASGYSFTGYTMHWVKQSHGKNLEWIGLINPYNGGTGYNQKFKGKATLTVDKSSSTTYIELLSLTSEDSAVYYCARTSGYLFAYWGQGTLVTVSA VL: DIQMTQSSSSFSVSLGDRVTITCKASEDIYNRLAWYQQKPGNAPRLLISGATSLETGVPSRFSGSGSGKDYIFSITSLQTEDVATYYCQQYWSSPLTFGAGTKLELK
5.07 nM | 6.3e-05 s⁻¹ | 12400 M⁻¹ s⁻¹ | 0.9 µg/mL | humanized A10 antibody A10/16E8 (antibody, V domains shown, VH of A10/16E8 (CDRs and flanking FR residues of mA10 grafted onto the human framework 16E8); VL of A10/16E8 (CDRs and flanking FR residues of mA10 grafted onto the human framework 16E8); also called A10/16A8 (as printed once in the discussion); source: Expi293F, transiently transfected, purified (protein G)) VH: QVQLVQSGGQVKKPGASVKISCKASGYSFTGYTMHWVKQAPGRGLEWIGLINPYNGGTGYNQKFKGKATLTVDKSSSTTYIELLSLTSEDSAVYYCARTSGYLFAYWGQGTLVTVSS VL: DIVLTQTPDSLAVSLGERATITCKASEDIYNRLAWYQQKAGQPPKLLISGATSLETGVPDRFSGSGSGTDFTLTISSLQAEDVATYYCQQYWSSPLTFGAGTKVNIK
20.8 nM | 0.000193 s⁻¹ | 9270 M⁻¹ s⁻¹ | 7.3 µg/mL | humanized A10 antibody A10/8A7 (antibody, V domains shown) VH: QIHLVESGGGVVQTGKSMKISCKASGYSFTGYTMHWVKQTPGKNLEWIGLINPYNGGTGYNQKFKGKATLTVDKSSSTTYIELLSLTSEDSAVYYCARTSGYLFAYWGQGTLVTVSS VL: ETVMTQSPATLSVSPGERATITCKASEDIYNRLAWYQQKPGQAPRLLISGATSLETGVPSRFSGSGSGTEFTLTISSLQSEDVATYYCQQYWSSPLTFGAGTKLEIK
